# Measurements from PMC9482650, “Quantitative fragmentomics allow affinity mapping of interactomes” (Nature Communications, 2022).
# T1: LIN7A, O14910
# T1 sequence (O14910 103-200, limits assumed, looked up): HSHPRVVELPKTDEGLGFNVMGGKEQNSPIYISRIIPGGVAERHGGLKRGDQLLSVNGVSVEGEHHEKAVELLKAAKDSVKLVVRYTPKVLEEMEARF
# T2: DLG3_3, Q92796
# T2 sequence (Q92796 374-475, limits assumed, looked up): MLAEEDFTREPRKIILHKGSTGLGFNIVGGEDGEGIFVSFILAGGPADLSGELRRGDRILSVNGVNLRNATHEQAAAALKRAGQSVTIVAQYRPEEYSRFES
# T3: NHERF3_1, Q5T2W1
# T3 sequence (Q5T2W1 4-100, limits assumed, looked up): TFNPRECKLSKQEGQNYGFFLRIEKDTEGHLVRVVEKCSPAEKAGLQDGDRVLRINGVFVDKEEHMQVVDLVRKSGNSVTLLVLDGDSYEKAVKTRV
# T4: APBA2_1, Q99767
# T4 sequence (Q99767 563-664, limits assumed, looked up): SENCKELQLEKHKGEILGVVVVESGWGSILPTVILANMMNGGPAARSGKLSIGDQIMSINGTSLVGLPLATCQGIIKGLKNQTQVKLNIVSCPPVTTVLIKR
# T5: DFNB31_2, Q9P202
# T5 sequence (Q9P202 274-371, limits assumed, looked up): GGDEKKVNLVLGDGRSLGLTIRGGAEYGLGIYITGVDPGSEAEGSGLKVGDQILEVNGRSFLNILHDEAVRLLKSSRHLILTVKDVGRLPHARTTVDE
# T6: ARHGEF11, O15085
# T6 sequence (O15085 42-136, limits assumed, looked up): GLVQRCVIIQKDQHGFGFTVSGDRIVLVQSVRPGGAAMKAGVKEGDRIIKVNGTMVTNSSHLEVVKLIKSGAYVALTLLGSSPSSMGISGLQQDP
# T7: DLG3_1, Q92796
# T7 sequence (Q92796 125-227, limits assumed, looked up): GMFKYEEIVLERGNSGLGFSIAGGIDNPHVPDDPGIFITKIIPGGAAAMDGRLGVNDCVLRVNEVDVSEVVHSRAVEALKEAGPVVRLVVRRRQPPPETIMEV
# T8: SYNJ2BP, P57105
# T8 sequence (P57105 8-110, limits assumed, looked up): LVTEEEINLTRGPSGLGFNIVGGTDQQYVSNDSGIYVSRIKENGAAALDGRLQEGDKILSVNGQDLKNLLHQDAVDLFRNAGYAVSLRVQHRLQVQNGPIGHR
# T9: RAPGEF6, Q8TEU7
# T9 sequence (Q8TEU7 525-625, limits assumed, looked up): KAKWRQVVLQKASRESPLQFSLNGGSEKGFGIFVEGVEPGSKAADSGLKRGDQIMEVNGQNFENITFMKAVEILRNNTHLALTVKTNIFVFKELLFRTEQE
# T10: NHERF3_4, Q5T2W1
# T10 sequence (Q5T2W1 373-468, limits assumed, looked up): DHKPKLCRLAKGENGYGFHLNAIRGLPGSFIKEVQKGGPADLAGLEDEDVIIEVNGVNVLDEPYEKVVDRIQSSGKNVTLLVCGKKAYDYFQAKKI
# T11: PDZRN3_1, Q9UPQ7
# T11 sequence (Q9UPQ7 244-349, limits assumed, looked up): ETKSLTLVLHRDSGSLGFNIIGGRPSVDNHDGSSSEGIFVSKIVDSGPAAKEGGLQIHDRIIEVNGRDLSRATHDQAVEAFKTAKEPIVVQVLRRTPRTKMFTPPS
# T12: PCLO, Q9Y6V0
# T12 sequence (Q9Y6V0 4491-4600, limits assumed, looked up): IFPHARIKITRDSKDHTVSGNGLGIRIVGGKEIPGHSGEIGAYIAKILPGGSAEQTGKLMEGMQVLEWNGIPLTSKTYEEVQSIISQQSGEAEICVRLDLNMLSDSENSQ
# Legend:
# Experiment in all cases: holdup assay
# Parameters in all cases: key: below the threshold = too weak to quantify, mostly under pKd 3.1 to 4
# LIN7A, O14910 = molecular target: T1, LIN7A, O14910
# DLG3_3, Q92796 = molecular target: T2, DLG3_3, Q92796
# NHERF3_1, Q5T2W1 = molecular target: T3, NHERF3_1, Q5T2W1
# APBA2_1, Q99767 = molecular target: T4, APBA2_1, Q99767
# DFNB31_2, Q9P202 = molecular target: T5, DFNB31_2, Q9P202
# Inadl_1, Q8NI35 = molecular target: Inadl_1, Q8NI35
# ARHGEF11, O15085 = molecular target: T6, ARHGEF11, O15085
# FRMPD4, Q14CM0 = molecular target: FRMPD4, Q14CM0
# DLG1_3, Q12959 = molecular target: DLG1_3, Q12959
# DLG3_1, Q92796 = molecular target: T7, DLG3_1, Q92796
# SYNJ2BP, P57105 = molecular target: T8, SYNJ2BP, P57105
# NHERF2_2, Q15599 = molecular target: NHERF2_2, Q15599
# Inadl_10, Q8NI35 = molecular target: Inadl_10, Q8NI35
# RAPGEF6, Q8TEU7 = molecular target: T9, RAPGEF6, Q8TEU7
# GORASP2, Q9H8Y8 = molecular target: GORASP2, Q9H8Y8
# NHERF3_4, Q5T2W1 = molecular target: T10, NHERF3_4, Q5T2W1
# GRIP2_6, Q9C0E4 = molecular target: GRIP2_6, Q9C0E4
# DLG4_3, P78352 = molecular target: DLG4_3, P78352
# Inadl_6, Q8NI35 = molecular target: Inadl_6, Q8NI35
# PDZRN3_1, Q9UPQ7 = molecular target: T11, PDZRN3_1, Q9UPQ7
# DLG1_1, Q12959 = molecular target: DLG1_1, Q12959
# MAGI1_2, Q96QZ7 = molecular target: MAGI1_2, Q96QZ7
# GRASP, Q7Z6J2 = molecular target: GRASP, Q7Z6J2
# Inadl_5, Q8NI35 = molecular target: Inadl_5, Q8NI35
# PCLO, Q9Y6V0 = molecular target: T12, PCLO, Q9Y6V0
# [1] = plain residues with an end cap or a label only (N-terminal biotin on a linker: ttds)
# [2] = plain residues with an end cap or a label only (N-terminal biotin on a linker: ahx)
# Chain of DLG4_3, P78352 (P78352 306-403): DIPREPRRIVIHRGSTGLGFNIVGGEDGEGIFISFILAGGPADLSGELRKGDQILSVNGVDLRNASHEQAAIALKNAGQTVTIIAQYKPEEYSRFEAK
# Chain of GRASP, Q7Z6J2 (Q7Z6J2 96-193): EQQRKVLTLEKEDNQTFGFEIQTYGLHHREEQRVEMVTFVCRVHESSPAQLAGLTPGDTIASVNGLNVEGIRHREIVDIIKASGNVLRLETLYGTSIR
# Chain of Inadl_5, Q8NI35 (Q8NI35 673-780): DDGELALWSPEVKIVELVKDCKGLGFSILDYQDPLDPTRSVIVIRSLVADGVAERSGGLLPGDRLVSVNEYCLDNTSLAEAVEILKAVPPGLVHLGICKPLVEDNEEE
# Chain of Inadl_1, Q8NI35 (Q8NI35 113-229): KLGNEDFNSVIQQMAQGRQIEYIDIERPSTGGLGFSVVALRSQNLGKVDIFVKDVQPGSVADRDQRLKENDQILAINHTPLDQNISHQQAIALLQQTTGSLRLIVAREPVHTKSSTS
# Chain of Inadl_10, Q8NI35 (Q8NI35 1673-1763): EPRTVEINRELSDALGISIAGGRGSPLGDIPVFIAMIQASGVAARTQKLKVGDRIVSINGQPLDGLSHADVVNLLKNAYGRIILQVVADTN
# Chain of NHERF2_2, Q15599 (Q15599 142-238): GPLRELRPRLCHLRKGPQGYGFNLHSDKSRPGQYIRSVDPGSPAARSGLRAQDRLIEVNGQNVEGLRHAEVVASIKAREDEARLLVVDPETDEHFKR
# Chain of Inadl_6, Q8NI35 (Q8NI35 1058-1167): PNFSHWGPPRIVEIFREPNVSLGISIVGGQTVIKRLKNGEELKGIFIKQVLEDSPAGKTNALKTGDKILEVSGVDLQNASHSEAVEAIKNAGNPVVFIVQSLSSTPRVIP
# Chain of MAGI1_2, Q96QZ7 (Q96QZ7 456-580): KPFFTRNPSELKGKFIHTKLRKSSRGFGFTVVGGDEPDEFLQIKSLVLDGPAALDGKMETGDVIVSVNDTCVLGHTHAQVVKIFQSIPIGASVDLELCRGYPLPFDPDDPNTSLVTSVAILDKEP
# Chain of FRMPD4, Q14CM0 (Q14CM0 67-160): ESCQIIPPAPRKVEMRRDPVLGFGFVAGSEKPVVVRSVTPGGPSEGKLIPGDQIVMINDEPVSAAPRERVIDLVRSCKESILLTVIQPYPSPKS
# Chain of GRIP2_6, Q9C0E4 (Q9C0E4 648-740): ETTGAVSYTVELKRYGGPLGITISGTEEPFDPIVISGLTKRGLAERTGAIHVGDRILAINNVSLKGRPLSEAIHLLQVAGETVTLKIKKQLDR
binder,measurement,setting,value
"QSARYRDTEL [TJP2, Q9UDY2]",pKd,"LIN7A, O14910; [1]",below the threshold
same,pKd,"DLG3_3, Q92796; [1]",below the threshold
same,pKd,"NHERF3_1, Q5T2W1; [1]",4.33
same,pKd,"APBA2_1, Q99767; [1]",below the threshold
same,pKd,"DFNB31_2, Q9P202; [1]",below the threshold
same,pKd,"Inadl_1, Q8NI35; [1]",below the threshold
same,pKd,"ARHGEF11, O15085; [1]",3.87
same,pKd,"FRMPD4, Q14CM0; [1]",4.35
same,pKd,"DLG1_3, Q12959; [1]",3.83
same,pKd,"DLG3_1, Q92796; [1]",below the threshold
same,pKd,"SYNJ2BP, P57105; [1]",5.1
same,pKd,"NHERF2_2, Q15599; [1]",4.12
same,pKd,"Inadl_10, Q8NI35; [1]",below the threshold
same,pKd,"RAPGEF6, Q8TEU7; [1]",3.55
same,pKd,"GORASP2, Q9H8Y8; [1]",below the threshold
same,pKd,"NHERF3_4, Q5T2W1; [1]",3.81
same,pKd,"GRIP2_6, Q9C0E4; [1]",below the threshold
same,pKd,"DLG4_3, P78352; [1]",below the threshold
same,pKd,"Inadl_6, Q8NI35; [1]",below the threshold
same,pKd,"PDZRN3_1, Q9UPQ7; [1]",4.67
same,pKd,"DLG1_1, Q12959; [1]",3.68
same,pKd,"MAGI1_2, Q96QZ7; [1]",below the threshold
same,pKd,"GRASP, Q7Z6J2; [1]",below the threshold
same,pKd,"Inadl_5, Q8NI35; [1]",below the threshold
same,pKd,"PCLO, Q9Y6V0; [1]",below the threshold
"GQDSREETQL [KCNT2, Q6UVM3]",pKd,"LIN7A, O14910; [1]",below the threshold
same,pKd,"DLG3_3, Q92796; [1]",below the threshold
same,pKd,"NHERF3_1, Q5T2W1; [1]",5.47
same,pKd,"APBA2_1, Q99767; [1]",below the threshold
same,pKd,"DFNB31_2, Q9P202; [1]",below the threshold
same,pKd,"Inadl_1, Q8NI35; [1]",below the threshold
same,pKd,"ARHGEF11, O15085; [1]",4.44
same,pKd,"FRMPD4, Q14CM0; [1]",4.48
same,pKd,"DLG1_3, Q12959; [1]",below the threshold
same,pKd,"DLG3_1, Q92796; [1]",below the threshold
same,pKd,"SYNJ2BP, P57105; [1]",4.62
same,pKd,"NHERF2_2, Q15599; [1]",5.17
same,pKd,"Inadl_10, Q8NI35; [1]",below the threshold
same,pKd,"RAPGEF6, Q8TEU7; [1]",below the threshold
same,pKd,"GORASP2, Q9H8Y8; [1]",below the threshold
same,pKd,"NHERF3_4, Q5T2W1; [1]",below the threshold
same,pKd,"GRIP2_6, Q9C0E4; [1]",below the threshold
same,pKd,"DLG4_3, P78352; [1]",below the threshold
same,pKd,"Inadl_6, Q8NI35; [1]",4.19
same,pKd,"PDZRN3_1, Q9UPQ7; [1]",4.97
same,pKd,"DLG1_1, Q12959; [1]",below the threshold
same,pKd,"MAGI1_2, Q96QZ7; [1]",4.5
same,pKd,"GRASP, Q7Z6J2; [1]",below the threshold
same,pKd,"Inadl_5, Q8NI35; [1]",below the threshold
same,pKd,"PCLO, Q9Y6V0; [1]",below the threshold
"IDNDTESTAL [ARHGAP17, Q68EM7]",pKd,"LIN7A, O14910; [1]",below the threshold
same,pKd,"DLG3_3, Q92796; [1]",below the threshold
same,pKd,"NHERF3_1, Q5T2W1; [1]",5.25
same,pKd,"APBA2_1, Q99767; [1]",below the threshold
same,pKd,"DFNB31_2, Q9P202; [1]",below the threshold
same,pKd,"Inadl_1, Q8NI35; [1]",below the threshold
same,pKd,"ARHGEF11, O15085; [1]",4.79
same,pKd,"FRMPD4, Q14CM0; [1]",4.45
same,pKd,"DLG1_3, Q12959; [1]",below the threshold
same,pKd,"DLG3_1, Q92796; [1]",below the threshold
same,pKd,"SYNJ2BP, P57105; [1]",4.01
same,pKd,"NHERF2_2, Q15599; [1]",5.24
same,pKd,"Inadl_10, Q8NI35; [1]",below the threshold
same,pKd,"RAPGEF6, Q8TEU7; [1]",below the threshold
same,pKd,"GORASP2, Q9H8Y8; [1]",below the threshold
same,pKd,"NHERF3_4, Q5T2W1; [1]",4.78
same,pKd,"GRIP2_6, Q9C0E4; [1]",below the threshold
same,pKd,"DLG4_3, P78352; [1]",below the threshold
same,pKd,"Inadl_6, Q8NI35; [1]",3.91
same,pKd,"PDZRN3_1, Q9UPQ7; [1]",4.44
same,pKd,"DLG1_1, Q12959; [1]",below the threshold
same,pKd,"MAGI1_2, Q96QZ7; [1]",below the threshold
same,pKd,"GRASP, Q7Z6J2; [1]",4.77
same,pKd,"Inadl_5, Q8NI35; [1]",below the threshold
same,pKd,"PCLO, Q9Y6V0; [1]",below the threshold
"TEAKLTETNA [MYO18A, Q92614]",pKd,"LIN7A, O14910; [2]",below the threshold
same,pKd,"DLG3_3, Q92796; [2]",below the threshold
same,pKd,"NHERF3_1, Q5T2W1; [2]",below the threshold
same,pKd,"APBA2_1, Q99767; [2]",below the threshold
same,pKd,"DFNB31_2, Q9P202; [2]",below the threshold
same,pKd,"Inadl_1, Q8NI35; [2]",below the threshold
same,pKd,"ARHGEF11, O15085; [2]",below the threshold
same,pKd,"FRMPD4, Q14CM0; [2]",below the threshold
same,pKd,"DLG1_3, Q12959; [2]",below the threshold
same,pKd,"DLG3_1, Q92796; [2]",below the threshold
same,pKd,"SYNJ2BP, P57105; [2]",below the threshold
same,pKd,"NHERF2_2, Q15599; [2]",below the threshold
same,pKd,"Inadl_10, Q8NI35; [2]",below the threshold
same,pKd,"RAPGEF6, Q8TEU7; [2]",below the threshold
same,pKd,"GORASP2, Q9H8Y8; [2]",below the threshold
same,pKd,"NHERF3_4, Q5T2W1; [2]",below the threshold
same,pKd,"GRIP2_6, Q9C0E4; [2]",below the threshold
same,pKd,"DLG4_3, P78352; [2]",below the threshold
same,pKd,"Inadl_6, Q8NI35; [2]",below the threshold
same,pKd,"PDZRN3_1, Q9UPQ7; [2]",below the threshold
same,pKd,"DLG1_1, Q12959; [2]",below the threshold
same,pKd,"MAGI1_2, Q96QZ7; [2]",below the threshold
same,pKd,"GRASP, Q7Z6J2; [2]",below the threshold
same,pKd,"Inadl_5, Q8NI35; [2]",below the threshold
same,pKd,"PCLO, Q9Y6V0; [2]",below the threshold
